From patent publication US6143719A, “Bradykinin analogs as selective thrombin inhibitors” (The Regents of the University of Michigan, priority 1996, dated 2000)
Each block holds one molecule with its values, some of them ahead of it.

What was measured:
[1] = water solubility of synthesized peptides; type: physicochemical
[2] = procoagulant activity of purified HK; set-up: species or system human; conditions: HK purified from plasma
Experimental: HK was purified from plasma by a modification of the procedures of Johnson et al., Thromb. Res. 48, 187 (1987) and Muller-Esterl et al., Methods Enzymol 163, 240 (1987). One hundred ml of 1 mM DFP-treated fresh frozen plasma was thawed at 37° C., to which 10 mM benzamidine-HCI, 40 μg/ml Polybrene, 2 mM EDTA, 0.2 mM PMSF, 0.2 mg/ml soybean trypsin inhibitor, 100 U/ml aprotinin and 2 M NaCl were added according to the method of Schmaier et al., Methods in Enzymology 169, 276 (1989). The treated plasma was then applied to a 2.5×20 cm column of CM-papain-SEPHAROSE 4B equilibrated in 50 mM phosphate buffer containing 2 M NaCl, 1 mM benzamidine-HCl, 40 μg/mL Polybrene, 0.2 mM PMSF, 0.02% (w/v) NaN3, pH 7.5. The CM-papain-SEPHAROSE 4B column was prepared by the procedure of Johnson et al., Thromb Res. 48, 187 (1987). HK and LK were eluted in a single peak after the addition of a 50 mM phosphate buffer solution containing 2 mM EDTA and 0.02% (w/v) NaN3, pH 11.5. Five ml fractions were collected into tubes containing 0.25 ml of a solution consisting of 4 mM PMSF in 1 M sodium acetate, pH 4.2 to bring the final pH to 6.0. The fractions containing HK and LK were then applied to a reactive Blue-Sepharose column (Sigma Chemical Corp, St. Louis, Mo.) equilibrated with 0.01 M sodium acetate pH 6.8 by the methods reported by Hasan et al., J. Biol. Chem. 269, 31822 (1994). […]

α-thrombin = α-thrombin (Homo sapiens, UniProt P00734); assay: α-thrombin cleavage of thrombin receptor peptide NAT12 (HPLC); type: biochemical; set-up: cleavage product peak 3, share of NAT12 peak 1 area / cleavage product peak 2, share of NAT12 peak 1 area: dose or concentration left out as unconfirmed
Experimental: A further study was performed to determine whether BK analogs prevent α-thrombin from cleaving the thrombin receptor reported by Vu et al., Cell 64, 1057 (1991). A peptide, NAT12 (SEQ ID NO:2), which spans amino acids […] of the α-thrombin cleavage site on the thrombin receptor, was used to determine whether the BK analogs described herein blocked α-thrombin cleavage of the cloned receptor.
The cleavage study was performed according to the method of Molino et al., J. Biol. Chem. 270,11168(1995),inwhichNAT12(SEQ ID NO:2) was dissolved in a solution of 0.01 M NaH2 PO4 and 0.15 M NaCl, pH 7.4. […] Following incubation, each mixture was separated by applying the mixture to a Vyadec C-18 HPLC column in 0.1% trifluoroacetic acid and eluting the mixture with a gradient from 0% to 100% of 80% MeCN and 0.1% trifluoroacetic acid. The size of the separated products were confirmed by mass spectrometry.

human platelets = type: cell-based; conditions: FIG. 2, concentration not given
Experimental: The cytoplasmic free Ca^2+ concentration ([Ca^2+ ]i) was measured using the fluorescent Ca^2 + indicator fura-2 (Molecular Probes, Inc., Eugene, Oreg.). Gel filtered platelets in Hepes-Tyrode's buffer were loaded with fura-2 by incubation at 37° C. with 1 μM fura-2/acetoxymethyl ester for 45 min according to the method of Rasmussen et al., J. Biol. Chem. 268, 14322 (1993). The labeled platelets were then re-gel filtered to remove any excess probe. Aliquots of the labeled platelet suspension were transferred into a quartz cuvette with a magnetic stirrer, which was then placed in a thermostatically controlled chamber at 37° C. in a fluorescence spectrophotometer (Dual Wave Length Shimazdu SP5000 Spectrofluorometer, Shimazdu USA, Pittsburgh, Pa.). Reagents were directly added to the cuvette. The excitation wave lengths varied between 340 and 380 nm. The fluorescence was measured by recording emitted light at 510 nm as reported by Fisher et al, Mol. Pharm. 35, 195 (1989). The minimum emission was determined on a 20 mM digitonin, 10 mM EGTA solubilized platelet sample; maximum emission was determined on the same sample with 10 mM Ca^2+ added. The intraplatelet free Ca^2+ concentration was calculated by the method of Grykiewicz et al., J. Biol. Chem. 260, 3440 (1985). The ratio of the fluorescence readings was calculated as R=340/380 nm and processed according to the equation [Ca^2+ ]i =KD ((R-Rmin)/Rmax -R))(Sf2 /Sb2) to determine the intraplatelet free Ca^2+ concentration. The KD for fura-2 was assumed to be 224 nM. Rmax and Rmin are the maximum and minimum fluorescence ratios measured at the end of the experiment, respectively; Sf2 and Sb2 are the fluorescence values at 380 nm in the absence and presence of saturating [Ca^2+ ], respectively.

washed platelets = assay: 125I-α-thrombin binding to platelets; set-up: species or system human; conditions: 200 nM HK
Experimental: Gel filtered platelets were placed into polypropylene tubes and diluted with Hepes-Tyrode's buffer, containing 2 mM CaCl2 and 50 μM ZnCl2 and additions, to a final concentration of 2×10^8 platelets/ml. The reaction was started by the addition of 1 nM ^125 I-α-thrombin, which was prepared by using the iodogen technique as reported by Meloni et al., J. Biol. Chem. 266, 6786 (1991). Incubations were performed at 37° C. for specified times with various additions. After incubation, 50 μl aliquots were removed in triplicate for each experimental point and placed in polypropylene microcentrifuge tubes with an extended tip containing 200 μl of an oil mixture which consisted of 1 part Apiezon A oil to 9 parts of n-butylphthalate (Gustafson et al., J. Clin. Invest. 78, 810 (1986)), and centrifuged at room temperature for 2 min at 10,900× g in a microcentrifuge. (Model E, Beckman Instruments, Palo Alto, Calif.) The supernatant was removed and the tips amputated for placement in the gamma counter. The radioactivity present in the cell pellet was determined with an LKB Rack Gamma Counter (LKB Instruments, Inc., Gaithersburg, Md.). Nonspecific binding was measured in the presence of a 100-fold molar excess of α-thrombin.

Molecule: SEQ ID NO:15: synthesized hydrophobic peptide, sequence not printed (NATFYFKIDNVKKARVQVVAGKKYFI)
- water solubility [1]: hydrophobic requiring 0.01% DMSO in order to solubilize it

- cleavage product peak 2, share of NAT12 peak 1 area (α-thrombin): 14%
- cleavage product peak 3, share of NAT12 peak 1 area (α-thrombin): 18%
- reduction of NAT12 peak 1 area after α-thrombin (α-thrombin; 8 nM α-thrombin): 32%
B1: HK: human high molecular weight kininogen purified from plasma (protein, UniProt P01042 19-644, looked up)
Kininogen-1: QESQSEEIDCNDKDLFKAVDAALKKYNSQNQSNNQFVLYRITEATKTVGSDTFYSFKYEIKEGDCPVQSGKTWQDCEYKDAAKAATGECTATVGKRSSTKFSVATQTCQITPAEGPVVTAQYDCLGCVHPISTQSPDLEPILRHGIQYFNNNTQHSSLFMLNEVKRAQRQVVAGLNFRITYSIVQTNCSKENFLFLTPDCKSLWNGDTGECTDNAYIDIQLRIASFSQNCDIYPGKDFVQPPTKICVGCPRDIPTNSPELEETLTHTITKLNAENNATFYFKIDNVKKARVQVVAGKKYFIDFVARETTCSKESNEELTESCETKKLGQSLDCNAEVYVVPWEKKIYPTVNCQPLGMISLMKRPPGFSPFRSSRIGEIKEETTVSPPHTSMAPAQDEERDSGKEQGHTRRHDWGHEKQRKHNLGHGHKHERDQGHGHQRGHGLGHGHEQQHGLGHGHKFKLDDDLEHQGGHVLDHGHKHKHGHGHGKHKNKGKKNGKHNGWKTEHLASSSEDSTTPSAQTQEKTEGPTPIPSLAKPGVTVTFSDFQDSDLIATMMPPISPAPIQSDDDWIPDIQIDPNGLSFNPISDFPDTTSPKCPGRPWKSVSEINPTTQMKESYYFDLTDGLS
modifications: high molecular weight kininogen
- specific activity (procoagulant activity) [2]: 11-22 U/mg
- inhibition of α-thrombin-induced calcium mobilization (human platelets): inhibited
- inhibition of 125I-α-thrombin binding to platelets (washed platelets): able to inhibit
